The values that follow come from PMC11846896, “Phage parasites targeting phage homologous recombinases provide antiviral immunity” (Nature Communications, 2025).

Series [1] addresses Sak80αΔCTD (truncated Sak80α with its CTD removed) (phage 80α (Staphylococcus aureus phage)). In words: cryo-EM structure; Sak80αΔCTD at 1.5 mg/ml in 20 mM Tris-HCl pH 7.6, 100 mM NaCl, 1 mM DTT; C18 symmetry.
Series [2] concerns the target Stl2 (SaPI2-encoded transcriptional repressor Stl), wild type, C-terminally histidine tagged (Staphylococcus aureus (SaPI2)). In words: mass photometry; single proteins; diluted to 50 to 100 nM in 20 mM Tris pH 8.0, 0.5 mM EDTA, 200 mM NaCl, 2 mM DTT; self-association (dimer and large oligomers).
For series [3], the target named is Sak80α, full-length, untagged, co-expressed with Stl2 from pETDuet-1 (phage 80α (Staphylococcus aureus phage)). In words: cryo-EM structure; Stl2-Sak80α complex co-expressed from pETDuet-1 and co-purified, third elution peak of Superose 6, 1.5 mg/ml; D1 symmetry.
Series [4] has as its target T1, Stl2-Sak4_52A complex (Staphylococcus phage 52A, UniProt Q4ZAS5).
T1 construct: both from E. coli BL21, mixed 1:1; with SaPI2 transcriptional repressor Stl (Staphylococcus aureus)
Put plainly: cryo-EM structure of the complex ([…] Å). The class given is binding. The conditions noted are these: 2 mM ATPγS, 20 mM Tris pH 7.6, 100 mM NaCl, 1 mM DTT, 37 °C 10 min, Stl2 1:1; site at Sak4_52A protomer interface (Lys41, Thr42, Tyr216 of one; Lys229, Arg231, His232 of the next).

Series [5] has as its system Stl2-ΔCTD (Staphylococcus aureus pathogenicity island SaPI2). In words: EMSA. The conditions noted are these: EMSA: 20 mM Tris-HCl pH 7.0, 100 mM NaCl, 5% glycerol, 50 ng/µl BSA, 1 ng/µl salmon sperm DNA, 5 mM DTT, 2 nM FAM-DNA, room temperature 30 min; Stl2 + 5 mM …. For orientation: A gel shift assay detects complexes by their altered migration in electrophoresis.

T1 sequence (A0FIL5 entry or part of it): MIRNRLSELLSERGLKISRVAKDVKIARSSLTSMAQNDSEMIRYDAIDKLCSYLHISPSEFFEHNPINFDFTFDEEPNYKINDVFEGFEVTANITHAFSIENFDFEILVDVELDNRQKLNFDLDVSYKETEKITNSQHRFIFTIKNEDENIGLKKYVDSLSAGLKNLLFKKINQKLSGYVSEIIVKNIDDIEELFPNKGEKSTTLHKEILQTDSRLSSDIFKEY
T1 sequence (Q4ZAS5 entry or part of it): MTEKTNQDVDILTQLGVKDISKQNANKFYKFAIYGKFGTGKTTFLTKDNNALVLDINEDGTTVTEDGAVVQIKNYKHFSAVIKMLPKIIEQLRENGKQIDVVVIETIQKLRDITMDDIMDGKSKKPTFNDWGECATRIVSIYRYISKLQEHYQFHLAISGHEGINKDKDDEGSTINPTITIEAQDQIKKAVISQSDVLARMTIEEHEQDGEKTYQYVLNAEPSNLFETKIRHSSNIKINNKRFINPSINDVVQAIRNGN

Take “Sak80αΔCTD (truncated Sak80α with its CTD removed) (domain or fragment)”: the stoichiometry N in series [1] worked out at 18.
In turn, “Stl2 (SaPI2-encoded transcriptional repressor Stl), wild type, C-terminally histidine tagged (natural protein)” yielded a stoichiometry N in series [2] of 2.
As for “Sak80α, full-length, untagged, co-expressed with Stl2 from pETDuet-1 (natural protein)”, in series [3], the stoichiometry N stood at 17.
In the case of `Nc1ncnc2c1ncn2[C@@H]1O[C@H](COP(=O)(O)OP(=O)(O)OP(O)(O)=S)[C@@H](O)[C@H]1O` [ATPγS], the “cryo-EM structure of the complex (3.35 Å)” value in series [4] was “The nucleotide ATPγS is boxed and zoomed in on the left-hand side”.
With SaPI2 IGR (stl-str intergenic region), the binding signal (fold reduction in affinity vs wild type) in series [5] was 30.

One may read the stoichiometry N as the number of molecules, sites or subunits per partner or assembly.
